# Data published in the nanobody polyreactivity screen of Harvey et al. (2022).
# Test: yeast display, Sf9 membrane polyspecificity reagent, FACS + sequencing; frameworks hold sequencing errors
# Procedure, shortened: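 A synthetic nanobody library was expressed on Saccharomyces cerevisiae BJ5465 by galactose induction for 36–48 hours. The library was stained for 1 hour at 4 °C with 10% biotinylated, detergent-solubilized Sf9 membrane reagent and enriched with streptavidin microbeads before FACS. Low and high (top ~1%) gates were set on anti-HA fluorescence for expression and streptavidin fluorescence for reagent binding, and each polyreactivity label reflects the gate of origin.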
row,Sequence,polyreactivity (PSR sort gate)
1,QVQLVESGGGLVQEGGSLRLTCAASGRIFQRYAMGWYSPPPGKERELVAVITKRGGNTYYADSVKGRFTLSRDNAKNTVYLQMNSLKPEDTAVYYCATRSGRSTGDYWGQGTQVTVSS,high polyreactivity
2,QVQLVESGGGLVQAGGSLSLSCAAYGFTFERNGMGWYRQAPGKERELVAAISIRGGSTYYADSVKGRFTMSRDNAKNTVSLQMNSLKPEDTAVYYCAVVARRAFDYWGQGTQVTVSS,high polyreactivity
3,QVQLVESGGGLVQAGGSLRLSCAASGLIFYYYAMGWYRQAPGKEREFVAAISRSGGITRYADSVKGRFTISRDNAKNTVYLQMNSLKPEDTAVYYCAADAYPLTYDDYYWGQGTKVTVSS,high polyreactivity
4,QVQLVESGGGLVQAGGSLRLSCAASGSIFGINAMGWYRQAPGKERELVAAITWSGGSTFYADSVKGRFTISRDNAKNTVYLQMNSLKPEDTAVYYCAASYSRWYWLYTSDYWGQGTQVTVSS,high polyreactivity
5,QVKLVESGGGLVQAGGSLRLSCAASGRIFGYYDMGLYRQAPGKDRELVAAISWNGGSTSYADSVKGRFTISRDNAKNTVYLQMNSLKPEDTAVYYCAAETQYDGYVGSFYYWGQGTQVTVSS,low polyreactivity
6,QVQLVESGGGLVQAGGSLRLSCAASGFIFPGYAMGWYRQAPGKERELVAVISGSGARTYYADSVKGRFTISRDNAKNTVYLQMNSLKPEDTAVYYCATDYCRTRQYRPGDYWGQGTQVTVSS,high polyreactivity
7,QVQLVESGGGLVQAGGSLRLSCAASGITFGHYTMGWYRQAPGKERELVAAISWSGGSTYYADSVKGRFTISRDNAKNTVYLQMNSLKPEDTAVYYCNRVKPVIASYDSDYWGQGTQVTVSS,low polyreactivity
8,QVQLVESGGGLVQAGGSLSLSCAASGRTFGPYAMGWYRKAPGKERELVAVISGRGTSTYYADSVKGRFTISRDNAKNTVYLQMNSLKPEDTAVYYCNADYGSWYWGFDYWGQGTQVTVSS,low polyreactivity
9,QVQLVESGGGLVQAGGSLRLSCAASGFTFDGYAMGWYRQAPGKERELVAAISDSGDSTYYADSVKGRFTISRDNAKNTVYLQMNSLKPEDTAVYYCAAGLGYYWSDYFAYDYWGQGTQVTVSS,low polyreactivity
10,QVQLVESGGGLVQAGGSLRLSCAASGSIFYRNTMGWYRQAPGKERELVAAITSGGGTNYADSVKGRFTISRDNAKNTVYLQMNSLKPEDTAVYYCAASRQYTVGFYSWGQGTQVTVSS,high polyreactivity
11,QVQLVESGGGLVQAGGSLRLSCAASGSIFPDYALGWYRQPPGKERELVAAITWRDDSTYYADSVKGRFTSSRDKAKNTVYLQMNSLKPEETAVYYCNASAMDPLYAKDDYWGQGTQVTVSS,low polyreactivity
12,QVQLVESGGGLVQAGGSLRLSCAASGRTFLYNAMGWYRQAPGKERELVAAISFDDGSTYYADSVKGRFTISRDNAKNTVYLQMNSLKPEDTAVYYCAAEYLYVGDSQAYNQYEYWGQGTQVTVSS,low polyreactivity
13,QVQLVESGGGLVQAGGSLRLSCAASGRTFYRSAMGWYRQAPGKERELVAAISSSGGRTYYADSVKGRFTISRDYAKNTVYLQMNSLKPEDTAVYYCNAAPSWSTSFDSWGQGTQVTVSS,high polyreactivity
14,QVQLVESGGGLVQAGGSLRLTCAASGRIFYYYAMAWYRQAPGKEMELVAAIRRGGFTYYADSVKGRFTISRDNAKNTVYLQMYSLKQEDTAVYYCAAGVSKPNGYYYLRGYERGYWGQGTQVTVSS,high polyreactivity
15,QVQLVESGGGLDQAGGSLRLSCAASGFTFPLYAMGWYRQAPGKERELVAVISRSGGSTYYADSVKGRFTISRDNAKNTVYLQMNSLTPEDTAVYYCAARLVPRSPERGNYDYWGQGTQVTVSS,high polyreactivity
16,QVQLVETGGGLVQAGGSLRLSCAASGRTFAYYAMGWYRQAPGKERELVAAISSGGRTNYADSVKGLFTISRDNAKNTVYLQMNSLKPEDTAVYYCAAVRWVYPRRYYYWGQGTQVTVSS,high polyreactivity
17,QVQLVESGGGLVQAGGSLRLSCAASGITFWTYAMGWYRQAPGKERELVAAISKSGGSTYYADSVKGRFTISRDNAKNTVYLQMNSLKPEDTAVYYCAAKGLRYRDIDYDYWGQGTQVTVSS,low polyreactivity
18,QVQLVESGGGLVQAGGSLRLSCAASGSTFKTYAMGWYRQAPGKEREFVASISTSGGSTYYADSVKGRFTISRDNAKNTVYLQMNSLKPEDTAVYYCAAKGRSYGVTRMYYWGQGTQVTVSS,high polyreactivity
19,QVQLVESGGGLVQAGGSLRLSCAASGSIFRRYALGWYRQAPGKERELVAAISYSGGSTYYADSVKGRFTISRDNAKNTVYLQMNSLKPEDTAVYYCAVVTRKGLYDYWGQGTQVTGSS,high polyreactivity
20,QVQLVESGGGLVQAGGSLRLSCAASGRTFVFNAMGWYRPAPGKERELVAAITKNGGSTYYADSVKGRFTISRDNAKNTVYLQMNSLKPEDTAVYYCAAQWWRLYWEYYYWGQGTQVTVSS,low polyreactivity
21,QVQLVESGGGLVQAGGSLRLSCAASGSIFGSYAMGWYRQAPGKARELVAAISQSGSSTYYADSVKGRFTISRDNAKNTVSLQMNSLKPEDTAVYYCAADWRHLRYRGGLQYDYWGQGTQVTVSS,high polyreactivity
22,QVQLVESGGGLVQAGGSLRLSCAASGFTFVYYAMGWYRPAPGKERDLVATISGNGGRTYYADSVKGRFTISRDNAKNTVYLQMNSLKPEDTAVYYCATDVGFGRKQRPHRPGYGYWGQGTQVTVSS,low polyreactivity

row,Sequence,polyreactivity (PSR sort gate)
1,QVQLVESGGGLVQAGGSLRLSCAASGRIFYSNVMGWYRQAPGKERELVAAISGRTGGTYYADSVKGRFTISRDNAKNTVYLQMNSLKPEATAVYYCAARVIYYYGSGPYDYWGQGTQVTVSS,low polyreactivity
2,QVQLVESGGGLVQSGGSLRLSCAASGSTVDDNAMGWSRQAPGQVMELVAAIDTSGGSTYADSVKGRFTISRYNAKNTVYLQMNSQKPEDTAVYYCAKPFSSNSWSHGYWGQGTQVTVSS,low polyreactivity
3,QVQLVESGGGLVQAGGSLRLSCAASGSIFVANAMGWYRQAPGKERELVAAISVRGGRTYYADSVKGRFTISRDNAKNTVYLQMNSLKPEDTAVYYCARVLRSDVADYDYWGQGTQVTVSS,high polyreactivity
4,QVQLVESWGGLVQAGGSLRLSCAASGLIFQTYTMGWYKQAPGKERELVAAITSSGGRTYYADSVKGRFTISRDNAKNTVYLQKNSLKPEDTAVYYCAARGPPSAGMGYWGQGTQVTVSS,high polyreactivity
5,QVQLVESGGGLVQAGGILRLSCAASGFILWYYTMGWSRQAPGKERELVAAISRGGTTYYADSVKGRFTISRDTAKNTVYLQMYSLKPEDTAVYYCNAPYNTHGIVLYDYWGQGTQVTVSS,low polyreactivity
6,QVQLVESGGGLVQAGGSLRLSCAASGSIFWYNAMGWYRQAPGKERELVAAIRWRGGSTYYADSVKGRFTISRDNAKNTVYLQMNSLKPEDTAVYYCAAQVYVSQLYTSYYYWGQGTQVTVSS,high polyreactivity
7,QVQLVESGGGLVQAGGSLRLSCAASGSIFFWNTMGWYRQAPGKVRELVAAITVSGGSTYYADSVKGRFTISRDNAKNTVYLQMNSLKPEDSAVYYCAADPYRRYGYDSYNYWGQGTQVTVSS,high polyreactivity
8,QVQLVESGGGLVQAGGSLRLSCAASGRIFGRNAMGWYRQAPGKERELVAAISRRSVSTYYADSVKGRFTISRDIAKNTVYLQMNSLKPEETAVYYCAARKSLTTPYGYWGQGTQVTVSS,high polyreactivity
9,QVQLVESGGGLVQAGGSLRLSCAASGSTFAGNAMGWSRQAPGKERELVAGITSSGARTYYADSVKGRFTISRDNAKNTVYLQMNSLKPEDTAVYYCNKYHFSPYDYWGQGTQVTVSS,high polyreactivity
10,QVQLVESGGGLVQAGGSLRLSCAASGPTFYRYAMGWYRQAPGKERELVAAISSSGGSTYYADSVKGRFTISRDNANNTVYLQMNSLKPEDTAVYYCATGYRYASYLCNYWGHGTQVTVSS,high polyreactivity
11,QVQLVESGGGLVQSGGSLRLSCAASGIIFSRNAMGWYRQAPGKERELVAGITSSGGTTYYADSVKGRFTISRDNAKNTVYLQMNSLKPEDTAVYYCAAYSTQNYSYRRYYYWGQGTQVTVSS,high polyreactivity
12,QVQLVESGGGLVQAGGSLRISCAASGRTFDINAMGWYSPAPGKERELVAAISSRGGTTFYADSVKGRFTISRDNAKNTVYLKMNSLKPEDSAVYYCAAVTSYYYTEEDYWGQGTQVTVSS,low polyreactivity
13,QVQLVESGGGLDQAGGSLRLSCAASGRIFGYYAMGWYRLAPGKERELVAGIRSVGSTNYADSVKGRFTISRDNAKNTVYLQMNSLKPEDTAVNYCASRLWHLSYAGQGGDYWGQGTQVTVSS,low polyreactivity
14,QVQLVESGGGLVQAGGSLRLSCAASGNILEYNAMGWYRQAPGKERELVAAISRGGITNYADSVKGRFTISRDNAKNTVYLQMNSLKPEDTAVYYCATRWIGYTSQWDHFEYDYWGQGTQVTVSS,low polyreactivity
15,QVQLVESGGGLVQTGGSLRLSCAASGLTLYVYAMGWYRQAPGKERELVASITSGGSTNYADSVKGRFTISRDNAKNTVYLQMNSLKPEDTAVYYCAAETDTVYDWIAPYVTYDYWGQGTQVTVSS,low polyreactivity
16,QVQLVESGGGLVQAGGSLRLSCAASGFTFSYYAMGWYRQAPGKERELVASISRSGNTYYADSVKGRFTISRDNAKNTVYLQMNSLKPEDTAVYYCAAKRKSYYSYNFDYWGQGTQVTVSS,high polyreactivity
17,QVQLVESGGGLVQAGGSLRLICAASGSIFITYAMGWSRQAPGKERELVAAIRRGGRTNYADSVKGRFTISRDNAKNTVYLQMNSLKPEDTAVYYCAAEFHTGWPYYPDYAYDYWGQGTQVTVSS,low polyreactivity
18,QVQLVESGGGLVQAGGSLRLSCAASGSTFEYYAMGSYRQAPGKERELVATISIDGRTNYADSVKGRFTISRDNAKNTVYLQMNSLKPEDTAVYYCAARPYWRQRYDYWGQGTQVTVSS,low polyreactivity
19,QVQLVESGGGLVQAGGSLRLSCAASGRTLEDYVMGWYRQAPGKERELVAAIYWSGVSTYYADSVKGRFTISRDNAKNTVYLQMNSMKPEDTAVYYCAKDSTADELTGFDYWGQGTQVTVSS,low polyreactivity
20,QVQLVESGGGLVQAGGSLRLSCAASGSTFPYNAKGWYRQAPGKERELVAAITTRGSTYYADSVKGRFTISRDNAKNTVYLQMNSLNPEESAVYYCANGPSLWYRSSFRGEGDYWGQGTQVTVSS,low polyreactivity
21,QVQLVESGGGLVQAGGSLRLSCAASGTTFGYNAMGWYRQAPGKERELVAAITSGGSTNYADSVKGRFTISRDNAKNTVYLQMNSLKPEDTAVYYCDKRGYYHYYWGQGTQVTVSS,high polyreactivity
